Where two headings read alike, the source gives them in different places. One block for each binder: values may come before it.
Experiments:
[1] = target: T1, 4H717-AA; assay: two-hybrid library CCmax;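 note: natural log of median RNA to DNA barcode read ratio; higher means stronger binding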
T1 chain: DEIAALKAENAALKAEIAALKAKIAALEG

[2] = target: T2, 4H797-AA; assay: two-hybrid library CCmax;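 note: natural log of median RNA to DNA barcode read ratio; higher means stronger binding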
T2 chain: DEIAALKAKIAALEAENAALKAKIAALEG

[3] = target: T3, 4H794-AA; assay: two-hybrid library CCmax; conditions: mean of both orientations;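 note: natural log of median RNA to DNA barcode read ratio; higher means stronger binding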
T3 chain: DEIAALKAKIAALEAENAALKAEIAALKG

[4] = target: T4, 4H906-AA; assay: two-hybrid library CCmax; conditions: mean of both orientations;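 note: natural log of median RNA to DNA barcode read ratio; higher means stronger binding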
T4 chain: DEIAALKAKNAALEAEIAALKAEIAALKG

[5] = target: T5, 4H883-AA; assay: two-hybrid library CCmax;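 note: natural log of median RNA to DNA barcode read ratio; higher means stronger binding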
T5 chain: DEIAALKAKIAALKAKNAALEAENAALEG

[6] = target: T6, 4H953-AA; assay: two-hybrid library CCmax; conditions: mean of both orientations;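 note: natural log of median RNA to DNA barcode read ratio; higher means stronger binding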
T6 chain: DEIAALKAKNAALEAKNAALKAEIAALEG

[7] = target: T7, 4H881-AA; assay: two-hybrid library CCmax; conditions: mean of both orientations
T7 chain: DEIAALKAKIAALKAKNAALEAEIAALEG

[8] = target: T8, 4H967-AA; assay: two-hybrid library CCmax; conditions: mean of both orientations
T8 chain: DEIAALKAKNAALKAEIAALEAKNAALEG

[9] = target: T9, 4H780-AA; assay: two-hybrid library CCmax; conditions: mean of both orientations
T9 chain: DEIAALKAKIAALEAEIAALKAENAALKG

[10] = target: T10, 4H918-AA; assay: two-hybrid library CCmax; conditions: mean of both orientations
T10 chain: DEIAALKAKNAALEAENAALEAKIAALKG

[11] = target: T11, 4H993-AA; assay: two-hybrid library CCmax; conditions: mean of both orientations
T11 chain: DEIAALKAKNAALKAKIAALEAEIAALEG

[12] = target: T12, 4H891-AA; assay: two-hybrid library CCmax; conditions: mean of both orientations
T12 chain: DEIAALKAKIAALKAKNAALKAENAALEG

[13] = target: T13, 4H909-AA; assay: two-hybrid library CCmax; conditions: mean of both orientations
T13 chain: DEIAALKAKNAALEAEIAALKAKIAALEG

[14] = target: T14, 4H930-AA; assay: two-hybrid library CCmax; conditions: mean of both orientations
T14 chain: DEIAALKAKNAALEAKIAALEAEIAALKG

[15] = target: T15, 4H94-AA; assay: two-hybrid library CCmax; conditions: mean of both orientations
T15 chain: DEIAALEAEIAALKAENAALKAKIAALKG

[16] = target: T16, 4H850-AA; assay: two-hybrid library CCmax; conditions: mean of both orientations
T16 chain: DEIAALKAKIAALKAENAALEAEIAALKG

[17] = target: T17, 4H918-bH; assay: two-hybrid library CCNG1
T17 chain: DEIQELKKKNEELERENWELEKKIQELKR

[18] = target: T18, 4H3974-bA; assay: two-hybrid library CCNG1
T18 chain: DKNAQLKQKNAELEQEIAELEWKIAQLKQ

[19] = target: T19, 4H850-bA; assay: two-hybrid library CCNG1
T19 chain: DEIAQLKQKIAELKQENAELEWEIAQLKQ

[20] = target: T20, 4H883-bN; assay: two-hybrid library CCNG1
T20 chain: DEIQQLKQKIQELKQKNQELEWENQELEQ

[21] = target: T21, 4H619-bA; assay: two-hybrid library CCNG1
T21 chain: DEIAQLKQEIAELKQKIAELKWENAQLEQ

[22] = target: T22, 4H584-bA; assay: two-hybrid library CCNG1
T22 chain: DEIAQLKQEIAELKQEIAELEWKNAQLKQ

[23] = target: T23, 4H3817-bA; assay: two-hybrid library CCNG1
T23 chain: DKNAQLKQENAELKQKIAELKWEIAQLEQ

[24] = target: T24, 4H906-bA; assay: two-hybrid library CCNG1
T24 chain: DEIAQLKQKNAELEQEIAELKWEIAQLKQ

[25] = target: T25, 4H3638-bA; assay: two-hybrid library CCNG1
T25 chain: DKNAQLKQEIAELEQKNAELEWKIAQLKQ

[26] = target: T26, 4H570-bA; assay: two-hybrid library CCNG1
T26 chain: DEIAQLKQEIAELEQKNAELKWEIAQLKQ

[27] = target: T27, 4H967-bA; assay: two-hybrid library CCNG1
T27 chain: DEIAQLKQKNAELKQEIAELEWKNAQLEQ

[28] = target: T28, 4H953-bA; assay: two-hybrid library CCNG1
T28 chain: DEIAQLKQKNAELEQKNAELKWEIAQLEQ

[29] = target: T29, 4H968-bA; assay: two-hybrid library CCNG1
T29 chain: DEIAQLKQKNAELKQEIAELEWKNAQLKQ

[30] = target: T30, O7-bA; assay: two-hybrid library CCNG1
T30 chain: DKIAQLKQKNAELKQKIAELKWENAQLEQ

[31] = target: T31, 4H816-AA; assay: two-hybrid library CCmax; conditions: mean of both orientations
T31 chain: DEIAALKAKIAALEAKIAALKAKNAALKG

[32] = target: T32, 4H3409-AA; assay: two-hybrid library CCmax; conditions: mean of both orientations
T32 chain: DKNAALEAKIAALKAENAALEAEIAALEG

[33] = target: T33, 4H3134-AA; assay: two-hybrid library CCmax; conditions: mean of both orientations
T33 chain: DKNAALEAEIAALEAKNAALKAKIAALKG

[34] = target: T34, 4H87-AA; assay: two-hybrid library CCmax; conditions: mean of both orientations
T34 chain: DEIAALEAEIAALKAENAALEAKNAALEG

[35] = target: T35, 4H775-AA; assay: two-hybrid library CCmax; conditions: mean of both orientations
T35 chain: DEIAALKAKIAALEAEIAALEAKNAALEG

[36] = target: T36, 4H3625-AA; assay: two-hybrid library CCmax; conditions: mean of both orientations
T36 chain: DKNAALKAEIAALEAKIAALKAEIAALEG

[37] = target: T37, 4H2985-AA; assay: two-hybrid library CCmax
T37 chain: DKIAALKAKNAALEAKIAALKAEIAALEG

[38] = target: T38, 4H3940-AA; assay: two-hybrid library CCmax; conditions: mean of both orientations
T38 chain: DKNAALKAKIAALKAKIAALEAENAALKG

[39] = target: T39, 4H390-AA; assay: two-hybrid library CCmax; conditions: mean of both orientations
T39 chain: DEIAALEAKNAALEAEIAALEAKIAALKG

[40] = target: T40, 4H510-AA; assay: two-hybrid library CCmax; conditions: mean of both orientations
T40 chain: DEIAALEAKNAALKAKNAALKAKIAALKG

Binder: DEIAALKAKIAALEAENAALKAKIAALEG [4H797-AA]
interaction score [2]: 1.76
interaction score [12]: -1.35
interaction score [13]: -0.899
interaction score [14]: -1.72
interaction score [15]: 0.948
interaction score ([5]; mean of both orientations): -1.4
interaction score [16]: 1.16
interaction score [6]: -0.955
interaction score [8]: -1.81
interaction score [10]: -0.389

Binder: DEIAQLKQKNAELEQKNAELKWEIAQLEQ [4H953-bA]
interaction score [27]: -1.11
interaction score [28]: -0.648
interaction score [29]: -1.33
interaction score [30]: -0.716

Binder: DEIAALKAKIAALKAKNAALEAENAALEG [4H883-AA]
interaction score [5]: -1.73
interaction score [6]: -2.05
interaction score [8]: -2.15
interaction score [10]: -1.46

Further lines, results first:

interaction score [1]: 1.89
interaction score [2]: -1.4
interaction score [3]: -1.37
interaction score [4]: -1.19
interaction score ([5]; mean of both orientations): -1.82
interaction score [6]: -1.87
interaction score [7]: -1.15
interaction score [8]: -0.559
interaction score [9]: -1.38
interaction score [10]: -1.34
interaction score [11]: 0.0522
Binder: DEIAALKAENAALKAEIAALKAKIAALEG [4H717-AA]

interaction score [17]: 0.343
interaction score [18]: 0.0825
interaction score [19]: 0.728
interaction score [20]: -2.2
interaction score [21]: -0.0681
interaction score [22]: -1.67
interaction score [23]: -0.0786
interaction score [24]: -1.97
interaction score [25]: 0.115
interaction score [26]: -0.717
Binder: DKNAQLKQEIAELEQKNAELEWKIAQLKQ [4H3638-bA]

interaction score [31]: -0.519
interaction score [32]: -0.847
interaction score [33]: -0.682
interaction score [34]: -1.48
interaction score [35]: -0.922
interaction score [36]: 0.889
interaction score [37]: 0.681
interaction score [38]: -0.918
interaction score [39]: 1.71
interaction score [40]: -0.541
Binder: DKIAALKAKNAALEAKIAALKAEIAALEG [4H2985-AA]

— paper PMC10397247
